The labels stand for the following.
B2: human AMCase C-terminally truncated, lacking the chitin binding domain (enzyme)
chain: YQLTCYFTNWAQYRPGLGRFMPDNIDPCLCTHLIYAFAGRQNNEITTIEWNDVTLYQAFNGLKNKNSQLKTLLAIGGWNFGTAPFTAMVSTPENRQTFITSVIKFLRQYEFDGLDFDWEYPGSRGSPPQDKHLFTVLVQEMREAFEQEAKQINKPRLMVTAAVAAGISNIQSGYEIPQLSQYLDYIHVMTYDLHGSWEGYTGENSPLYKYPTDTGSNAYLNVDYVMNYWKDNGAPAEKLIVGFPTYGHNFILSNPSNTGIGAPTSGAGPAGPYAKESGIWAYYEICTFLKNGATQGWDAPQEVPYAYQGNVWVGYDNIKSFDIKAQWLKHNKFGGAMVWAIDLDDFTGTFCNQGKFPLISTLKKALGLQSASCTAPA
notes: Biotin labeled in the galectin ELISA; also called hAMCase TR
B6: human acidic mammalian chitinase (AMCase), full length (enzyme)
chain: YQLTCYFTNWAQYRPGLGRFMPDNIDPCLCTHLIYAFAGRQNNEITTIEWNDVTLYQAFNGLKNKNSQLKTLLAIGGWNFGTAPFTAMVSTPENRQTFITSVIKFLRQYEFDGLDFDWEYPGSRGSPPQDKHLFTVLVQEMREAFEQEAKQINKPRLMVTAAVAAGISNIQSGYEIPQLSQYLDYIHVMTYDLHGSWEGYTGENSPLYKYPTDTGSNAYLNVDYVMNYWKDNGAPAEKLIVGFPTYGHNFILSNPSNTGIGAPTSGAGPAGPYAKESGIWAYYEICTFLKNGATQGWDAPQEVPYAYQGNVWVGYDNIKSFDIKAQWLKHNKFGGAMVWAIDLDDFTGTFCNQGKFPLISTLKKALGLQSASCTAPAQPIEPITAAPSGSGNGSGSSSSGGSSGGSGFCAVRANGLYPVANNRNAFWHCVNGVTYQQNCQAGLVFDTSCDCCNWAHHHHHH
notes: Recombinant from HEK293; non-tagged versions also made; Biotin labeled in the galectin ELISA; also called hAMCase; human AMCase
B8: human galectin-4 (other, UniProt P56470 1-323, looked up)
chain: MAYVPAPGYQPTYNPTLPYYQPIPGGLNVGMSVYIQGVASEHMKRFFVNFVVGQDPGSDVAFHFNPRFDGWDKVVFNTLQGGKWGSEERKRSMPFKKGAAFELVFIVLAEHYKVVVNGNPFYEYGHRLPLQMVTHLQVDGDLQLQSINFIGGQPLRPQGPPMMPPYPGPGHCHQQLNSLPTMEGPPTFNPPVPYFGRLQGGLTARRTIIIKGYVPPTGKSFAINFKVGSSGDIALHINPRMGNGTVVRNSLLNGSWGSEEKKITHNPFGPGQFFDLSIRCGLDRFKVYANGQHLFDFAHRLSAFQRVDTLEIQGDVTLSYVQI
notes: also called gal-4

Assay [1] concerns the target B2. The assay is described as follows: ELISA: galectin immobilised on the plate, serial dilutions of biotin-labelled C-terminally truncated human AMCase, A450. On the procedure: (§1) C/CLP-Galectin Interaction ELISA: Galectin is immobilized on a microtiter plate in DPBS over night at 2-8° C. The plates are then washed with DPBS, 0.1% Tween 20 and blocked for 1 hour at room temperature. Serial dilutions of biotin labeled AMCase are added to each well and incubated for ˜1 hour at room temperature followed by HRP labeled streptavidin. Horseradish peroxydase activity is detected with TMB substrate (KPL, MD) and the reaction is quenched with 1% H2SO4. The absorbance is read at 450 nm.

Assay [2] addresses B6. In words: ELISA: galectin immobilised on the plate, serial dilutions of biotin-labelled full length human AMCase, A450. The protocol:
as §1

The target in the assay “human galectin-4” is B8. The assay is described as follows: ELISA: galectin immobilised on the plate, serial dilutions of biotin-labelled AMCase, streptavidin-HRP, TMB, A450. On the procedure: as §1
Assay [3] has as its target T1, mouse AMCase truncated form lacking the C-terminal chitin binding domain (mouse, UniProt Q91XA9 22-398, limits assumed).
T1 construct: also called mAMCase TR
In words: ELISA.

The target of a further assay is T2, human chitotriosidase (human, UniProt Q13231 22-466).
T2 construct: Recombinant from HEK293; non-tagged versions also made; also called hChT; ChT
T2 sequence (Q13231 other isoform, or with tags, fused parts or gaps limits assumed): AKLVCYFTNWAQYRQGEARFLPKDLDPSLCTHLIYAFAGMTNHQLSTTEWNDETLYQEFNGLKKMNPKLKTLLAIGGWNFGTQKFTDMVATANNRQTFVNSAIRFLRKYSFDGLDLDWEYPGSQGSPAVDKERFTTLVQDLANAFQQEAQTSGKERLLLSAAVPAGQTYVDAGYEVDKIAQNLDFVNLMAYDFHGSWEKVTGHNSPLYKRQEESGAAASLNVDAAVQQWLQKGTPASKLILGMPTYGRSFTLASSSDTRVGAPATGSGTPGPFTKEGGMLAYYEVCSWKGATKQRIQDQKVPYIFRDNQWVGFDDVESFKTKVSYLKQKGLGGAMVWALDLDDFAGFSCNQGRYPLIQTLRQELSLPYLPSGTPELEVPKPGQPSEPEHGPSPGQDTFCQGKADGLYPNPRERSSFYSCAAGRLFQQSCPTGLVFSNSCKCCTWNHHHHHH
The assay is described as follows: ELISA.

Assay [4] deals with B6. The assay is described as follows: ELISA.
The target in a further assay is T3, mouse chitotriosidase (mouse, UniProt Q9D7Q1 22-464).
T3 construct: Recombinant from HEK293; non-tagged versions also made; also called mChT; mouse ChT
T3 sequence (Q9D7Q1 other isoform, or with tags, fused parts or gaps limits assumed): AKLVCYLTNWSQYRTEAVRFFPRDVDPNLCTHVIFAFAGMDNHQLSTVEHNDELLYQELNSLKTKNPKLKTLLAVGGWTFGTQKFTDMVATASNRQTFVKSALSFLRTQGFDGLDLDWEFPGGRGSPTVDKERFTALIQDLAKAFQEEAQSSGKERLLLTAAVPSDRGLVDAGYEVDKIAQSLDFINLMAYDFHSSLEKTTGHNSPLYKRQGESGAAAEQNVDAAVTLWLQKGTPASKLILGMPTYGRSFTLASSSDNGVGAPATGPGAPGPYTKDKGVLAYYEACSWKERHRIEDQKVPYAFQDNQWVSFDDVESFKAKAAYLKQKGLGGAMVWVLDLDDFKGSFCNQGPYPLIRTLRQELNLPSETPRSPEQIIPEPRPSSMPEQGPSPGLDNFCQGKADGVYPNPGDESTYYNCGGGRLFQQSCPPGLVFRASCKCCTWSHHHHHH
The assay is described as follows: ELISA.

The target of another assay is T4, mouse YKL-40/BRP-39 (mouse, UniProt Q61362 30-389).
T4 construct: Recombinant from HEK293; non-tagged versions also made; also called mYKL40/BRP39; mYKL-40
T4 sequence (Q61362 other isoform, or with tags, fused parts or gaps limits assumed): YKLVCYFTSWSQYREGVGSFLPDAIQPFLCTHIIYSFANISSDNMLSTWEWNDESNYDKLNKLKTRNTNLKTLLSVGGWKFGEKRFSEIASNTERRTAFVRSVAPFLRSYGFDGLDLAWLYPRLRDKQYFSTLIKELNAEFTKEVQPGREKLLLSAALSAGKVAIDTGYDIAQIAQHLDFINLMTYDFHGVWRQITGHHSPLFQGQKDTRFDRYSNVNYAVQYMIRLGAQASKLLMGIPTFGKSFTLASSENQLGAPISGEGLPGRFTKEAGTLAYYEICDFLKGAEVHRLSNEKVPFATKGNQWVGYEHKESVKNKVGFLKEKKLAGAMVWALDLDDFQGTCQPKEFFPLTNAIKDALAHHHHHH
The assay is described as follows: ELISA.

In a further assay the target is T5, human YKL-39 (human, UniProt Q15782 27-390).
T5 construct: Recombinant from HEK293; non-tagged versions also made; also called hYKL-39; chondrocyte protein 39
T5 sequence: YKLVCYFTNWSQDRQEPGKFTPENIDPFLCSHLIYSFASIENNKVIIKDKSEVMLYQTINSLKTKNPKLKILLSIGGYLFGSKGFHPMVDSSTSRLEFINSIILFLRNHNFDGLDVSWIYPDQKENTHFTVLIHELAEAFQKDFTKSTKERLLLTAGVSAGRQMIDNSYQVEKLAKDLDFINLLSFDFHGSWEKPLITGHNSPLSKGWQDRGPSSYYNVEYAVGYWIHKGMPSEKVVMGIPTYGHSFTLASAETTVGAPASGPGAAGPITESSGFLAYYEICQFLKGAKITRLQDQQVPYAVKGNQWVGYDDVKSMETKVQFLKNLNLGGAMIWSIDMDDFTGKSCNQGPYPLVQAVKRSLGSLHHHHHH
The assay is described as follows: ELISA.

Another assay deals with T6, human YKL-40 (human, UniProt P36222 22-383).
T6 construct: Recombinant from HEK293; non-tagged versions also made; also called hYKL-40; chitinase 3-like 1
T6 sequence (P36222 other isoform, or with tags, fused parts or gaps limits assumed): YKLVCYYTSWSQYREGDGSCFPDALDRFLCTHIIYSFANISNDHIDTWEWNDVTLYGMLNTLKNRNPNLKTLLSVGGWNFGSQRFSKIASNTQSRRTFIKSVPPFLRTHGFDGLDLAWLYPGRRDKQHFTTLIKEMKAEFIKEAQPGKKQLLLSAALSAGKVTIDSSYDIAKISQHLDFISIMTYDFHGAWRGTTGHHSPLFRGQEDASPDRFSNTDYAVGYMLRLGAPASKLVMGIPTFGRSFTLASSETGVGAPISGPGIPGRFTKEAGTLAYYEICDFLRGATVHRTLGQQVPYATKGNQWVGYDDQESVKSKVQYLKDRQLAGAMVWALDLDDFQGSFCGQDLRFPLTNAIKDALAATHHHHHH
In words: ELISA.

In assay [5] the target is B2. In words: ELISA.
A further assay deals with T7, mouse AMCase E140A (mouse, UniProt Q91XA9 22-473).
T7 construct: Full length point mutant without chitinase activity; also called mAMCase E140A
T7 sequence (Q91XA9 22-473 E140A limits assumed): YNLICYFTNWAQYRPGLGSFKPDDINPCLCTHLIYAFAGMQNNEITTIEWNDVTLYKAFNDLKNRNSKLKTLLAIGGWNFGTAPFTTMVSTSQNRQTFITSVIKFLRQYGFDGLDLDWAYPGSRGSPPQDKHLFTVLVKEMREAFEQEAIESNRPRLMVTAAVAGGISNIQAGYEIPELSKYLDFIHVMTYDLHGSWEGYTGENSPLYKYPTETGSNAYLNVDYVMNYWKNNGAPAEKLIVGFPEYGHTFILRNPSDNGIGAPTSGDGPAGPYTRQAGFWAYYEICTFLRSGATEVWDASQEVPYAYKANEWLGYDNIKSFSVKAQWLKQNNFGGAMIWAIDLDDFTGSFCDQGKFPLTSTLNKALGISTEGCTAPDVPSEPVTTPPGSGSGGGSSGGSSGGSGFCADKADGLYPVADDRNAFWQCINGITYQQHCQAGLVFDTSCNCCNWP
In words: ELISA; +++ = 2.50 to 3.99 OD at 62.5 ng/ml.

For assay [6], the target named is T8, mouse acidic mammalian chitinase (AMCase), full length (mouse, UniProt Q91XA9 22-473).
T8 construct: Recombinant, secreted from HEK293 cells and purified by its His tag; Biotin labeled in the galectin ELISA; also called mAMCase; mouse AMCase
T8 sequence (Q91XA9 other isoform, or with tags, fused parts or gaps limits assumed): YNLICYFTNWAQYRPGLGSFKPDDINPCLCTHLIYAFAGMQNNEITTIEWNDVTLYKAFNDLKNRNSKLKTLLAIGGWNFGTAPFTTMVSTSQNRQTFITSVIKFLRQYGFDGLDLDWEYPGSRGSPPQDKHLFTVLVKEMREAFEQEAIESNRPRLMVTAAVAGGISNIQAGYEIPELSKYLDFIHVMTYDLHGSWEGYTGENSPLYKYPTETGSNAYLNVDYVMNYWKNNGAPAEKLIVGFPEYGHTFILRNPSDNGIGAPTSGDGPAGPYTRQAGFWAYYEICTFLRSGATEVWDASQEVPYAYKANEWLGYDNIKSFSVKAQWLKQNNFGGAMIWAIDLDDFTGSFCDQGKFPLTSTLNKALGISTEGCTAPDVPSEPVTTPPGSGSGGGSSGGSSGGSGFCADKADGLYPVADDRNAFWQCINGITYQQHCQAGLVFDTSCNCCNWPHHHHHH
In words: ELISA; +++ = 2.50 to 3.99 OD at 62.5 ng/ml.

Another assay has as its target T9, mouse AMCase D136A (mouse, UniProt Q91XA9 22-473).
T9 construct: Full length point mutant without chitinase activity; also called mAMCase D136A
In words: ELISA; +++ = 2.50 to 3.99 OD at 62.5 ng/ml.

In assay [7] the target is T8, mouse acidic mammalian chitinase …. In words: ELISA (data not shown).
Another assay addresses T10, Ym1 (mouse, UniProt O35744 22-398).
T10 construct: Recombinant from HEK293; non-tagged versions also made; also called chitinase 3-like 3; ECF-L
In words: ELISA.

In the next assay the target is T11, Ym2 (mouse, UniProt Q91Z98 22-402).
T11 construct: Recombinant from HEK293; non-tagged versions also made; also called chitinase 3-like 4
T11 sequence (Q91Z98 other isoform, or with tags, fused parts or gaps limits assumed): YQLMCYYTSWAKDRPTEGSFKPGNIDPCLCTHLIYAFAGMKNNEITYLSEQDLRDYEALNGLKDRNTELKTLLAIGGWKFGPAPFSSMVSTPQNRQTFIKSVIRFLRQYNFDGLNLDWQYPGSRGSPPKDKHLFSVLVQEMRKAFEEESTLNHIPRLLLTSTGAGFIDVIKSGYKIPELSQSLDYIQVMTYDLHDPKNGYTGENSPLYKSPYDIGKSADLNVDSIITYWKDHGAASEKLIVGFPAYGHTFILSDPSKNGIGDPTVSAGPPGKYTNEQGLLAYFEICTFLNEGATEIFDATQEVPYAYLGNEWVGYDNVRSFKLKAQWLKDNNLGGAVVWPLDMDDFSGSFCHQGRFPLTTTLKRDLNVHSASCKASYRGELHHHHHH
The assay is described as follows: ELISA.

The target of the next assay is T12, human galectin-3 (human, UniProt P17931 2-250).
T12 construct: also called gal-3; LGALS3
T12 sequence (P17931 2-250 limits assumed): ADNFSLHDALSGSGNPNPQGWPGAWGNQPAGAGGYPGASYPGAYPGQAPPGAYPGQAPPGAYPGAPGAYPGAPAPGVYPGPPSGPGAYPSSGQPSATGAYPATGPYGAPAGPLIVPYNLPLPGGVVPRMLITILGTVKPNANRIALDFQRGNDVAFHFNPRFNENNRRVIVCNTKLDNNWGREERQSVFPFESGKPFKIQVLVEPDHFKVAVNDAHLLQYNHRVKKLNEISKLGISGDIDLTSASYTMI
The assay is described as follows: ELISA: galectin immobilised on the plate, serial dilutions of biotin-labelled AMCase, streptavidin-HRP, TMB, A450. The protocol:
as §1

Assay [8] concerns the target B6. The description is as above. The protocol: as §1

T1 sequence (Q91XA9 22-398 limits assumed): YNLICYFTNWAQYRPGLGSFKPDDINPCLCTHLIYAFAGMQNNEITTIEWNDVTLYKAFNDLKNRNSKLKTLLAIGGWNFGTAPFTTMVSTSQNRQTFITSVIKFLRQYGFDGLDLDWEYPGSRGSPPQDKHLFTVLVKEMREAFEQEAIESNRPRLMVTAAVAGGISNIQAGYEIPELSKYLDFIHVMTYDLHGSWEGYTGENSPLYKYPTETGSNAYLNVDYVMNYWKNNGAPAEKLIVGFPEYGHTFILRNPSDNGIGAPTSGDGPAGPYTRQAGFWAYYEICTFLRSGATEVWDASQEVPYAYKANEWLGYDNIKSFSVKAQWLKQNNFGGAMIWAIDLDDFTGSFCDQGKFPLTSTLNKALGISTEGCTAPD
T10 sequence (O35744 other isoform, or with tags, fused parts or gaps limits assumed): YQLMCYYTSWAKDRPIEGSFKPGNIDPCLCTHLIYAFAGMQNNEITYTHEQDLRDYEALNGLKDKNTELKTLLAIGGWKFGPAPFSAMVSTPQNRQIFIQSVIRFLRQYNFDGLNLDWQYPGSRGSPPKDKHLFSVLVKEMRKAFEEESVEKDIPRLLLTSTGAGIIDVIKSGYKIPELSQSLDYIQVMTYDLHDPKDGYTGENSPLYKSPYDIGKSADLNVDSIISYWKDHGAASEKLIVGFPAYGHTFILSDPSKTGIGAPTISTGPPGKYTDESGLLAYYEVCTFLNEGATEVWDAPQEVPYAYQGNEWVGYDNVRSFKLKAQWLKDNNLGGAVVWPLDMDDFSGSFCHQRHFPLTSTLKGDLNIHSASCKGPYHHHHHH
T9 sequence (Q91XA9 22-473 D136A limits assumed): as the sequence (Q91XA9 22-473 E140A limits assumed) above, with D115A, A119E counted along it

B1: galectin 2 (other, UniProt P05162 1-132, looked up)
chain: MTGELEVKNMDMKPGSTLKITGSIADGTDGFVINLGQGTDKLNLHFNPRFSESTIVCNSLDGSNWGQEQREDHLCFSPGSEVKFTVTFESDKFKVKLPDGHELTFPNRLGHSHLSYLSVRGGFNMSSFKLKE
In the case of B1, the binding result in assay [1] and in assay [2] was “no binding (tested: 10 ug/ml)” in each case.
With B2, in the assay with human galectin-4, the “EC50 (read off the curve)” value is around 0.1 µg/mL.

B3: M5 (antibody, V domains shown)
VH: EVQLLESGGGLVQPGGSLRLSCAASGFTFSKYLMQWVRQAPGKGLEWVSSIVPSGGETVYADSVKGRFTISRDNSKNTLYLQMNSLRAEDTAVYYCARSGTYGASRYWGQGTLVTVSS
VL: DIQMTQSPLSLSVSVGQSASISCRSSHSLLYSDGNTYINWFHQRPGQSPRRLIHMVSKRDSGVPDRFSGSGSGTDFTLKISRAEAEDVGVYYCMQATYFPLTFGGGTRVEIK
notes: Fully human anti-AMCase antibody from a phage display library, converted to full length IgG
Consider B3, for which the binding result (in assay [3]; with human chitotriosidase; in assay [4]; with mouse chitotriosidase; with mouse YKL-40/BRP-39; in the assay with human YKL-39) was “no binding” throughout. The binding result (in the assay with human YKL-40; in assay [5]) was “no binding” throughout. In addition, the “ELISA OD at 62.5 ng/ml antibody” value (in the assay with mouse AMCase E140A; in [6]; with mouse AMCase D136A) was 2.5 to 3.99 od in each case.

B4: mouse galectin-3 (other, UniProt P16110 2-264, looked up)
chain: ADSFSLNDALAGSGNPNPQGYPGAWGNQPGAGGYPGAAYPGAYPGQAPPGAYPGQAPPGAYPGQAPPSAYPGPTAPGAYPGPTAPGAYPGQPAPGAFPGQPGAPGAYPQCSGGYPAAGPYGVPAGPLTVPYDLPLPGGVMPRMLITIMGTVKPNANRIVLDFRRGNDVAFHFNPRFNENNRRVIVCNTKQDNNWGKEERQSAFPFESGKPFKIQVLVEADHFKVAVNDAHLLQYNHRMKNLREISQLGISGDITLTSANHAMI
notes: also called mGal-3
For the molecule B4, the binding result in assay [7] is reported as “binds”.

B5: M1 (antibody, V domains shown)
VH: EVQLLESGGGLVQPGGSLRLSCAASGFTFSTYGMDWVRQAPGKGLEWVSYISPSGGYTMYADSVKGRFTISRDNSKNTLYLQMNSLRAEDTAVYYCARHSPRSAGANAFDIWGQGTMVTVSS
VL: DIQMTQSPATLSVSPGERATLSCRASQSVSSNLAWYQQKPGQAPRLLIYGASTRATGIPARFSGSGSGTEFTLTISSLQSEDFAVYYCQQYGSSLWTFGQGTKVEIK
notes: Fully human anti-AMCase antibody from phage display, converted to full length IgG
Take B5: the binding result (in the assay with Ym1; in [3]; with human chitotriosidase; in [4]; with mouse chitotriosidase; in the assay with Ym2) was “no binding” each time. For the same molecule, the binding result (with mouse YKL-40/BRP-39; with human YKL-39; in the assay with human YKL-40; in assay [5]) was “no binding” in each case.
As for B6, the half-maximal effective concentration (EC50 (read off the curve)) with human galectin-3 is around 0.06 µg/mL.

B7: galectin 8 (other, UniProt O00214 1-317, looked up)
chain: MMLSLNNLQNIIYNPVIPFVGTIPDQLDPGTLIVIRGHVPSDADRFQVDLQNGSSMKPRADVAFHFNPRFKRAGCIVCNTLINEKWGREEITYDTPFKREKSFEIVIMVLKDKFQVAVNGKHTLLYGHRIGPEKIDTLGIYGKVNIHSIGFSFSSDLQSTQASSLELTEISRENVPKSGTPQLRLPFAARLNTPMGPGRTVVVKGEVNANAKSFNVDLLAGKSKDIALHLNPRLNIKAFVRNSFLQESWGEEERNITSFPFSPGMYFEMIIYCDVREFKVAVNGVHSLEYKHRFKELSSIDTLEINGDIHLLEVRSW
notes: also called LGALS8
Regarding B7, the binding result in [1] is on record as “no binding (tested: 10 ug/ml)”.
For the molecule B8, the binding result in assay [8] was “binds”.

B9: mouse galectin-4 (other, UniProt Q8K419 1-326, looked up)
chain: MAYVPAPGYQPTYNPTLPYKRPIPGGLSVGMSVYIQGMAKENMRRFHVNFAVGQDDGADVAFHFNPRFDGWDKVVFNTMQSGQWGKEEKKKSMPFQKGKHFELVFMVMPEHYKVVVNGNSFYEYGHRLPVQMVTHLQVDGDLELQSINFLGGQPAAAPYPGAMTIPAYPAGSPGYNPPQMNTLPVMTGPPVFNPRVPYVGALQGGLTVRRTIIIKGYVLPTARNFVINFKVGSSGDIALHLNPRIGDSVVRNSFMNGSWGAEERKVAYNPFGPGQFFDLSIRCGMDRFKVFANGQHLFDFSHRFQAFQMVDTLEINGDITLSYVQI
notes: also called mGal-4
Take B9: the binding result in assay [7] is on record as “binds”.

These data come from US20070071746A1 (AstraZeneca / MedImmune, published 2007).
